Experimental findings from the RNAGym collection of RNA variant scans (doi:10.7554/elife.90254) are described below.

B1: LINE1-mini (parent)
chain: GGCAGAGCUCAACACAGCGUGGCAAAGUGGCUGUGGCUAGACUGCC

In the data set the parent is B1. The data set is described as follows: self-cleavage, relative activity (ratio to wild type); higher = more cleavage; in vitro, sequencing; the parent is a self-cleaving ribozyme.
Regarding GGAAGAGCUCAACACAGCGUGGCAAAGGGGCUGUGGCUAGACUGCC, the self-cleavage is 0.42.

On to GGAAGAGCUCAACACAGCGUGGCAAAGAGGCUGUGGCUAGACUGCC, for which the self-cleavage was determined as 0.32.

For the variant GGAAGAGCUCAACACAGCGUGGCAAAGCGGCUGUGGCUAGACUGCC, the self-cleavage was 0.32.

On to GGAAGAGCUCAACACAGCGUGGCAAAGUUGCUGUGGCUAGACUGCC, for which the self-cleavage is 0.71.

As to GGAAGAGCUCAACACAGCGUGGCAAAGUCGCUGUGGCUAGACUGCC, the self-cleavage came to 0.25.

As for GGAAGAGCUCAACACAGCGUGGCAAAGUGCCUGUGGCUAGACUGCC, the self-cleavage was found to be 0.58.

With GGAAGAGCUCAACACAGCGUGGCAAAGUGACUGUGGCUAGACUGCC, the self-cleavage was 1.1.

Turning to GGAAGAGCUCAACACAGCGUGGCAAAGUGUCUGUGGCUAGACUGCC, the self-cleavage was 0.61.

In the case of GGGAGAGCUCAACCCAGCGUGGCAAAGUGGCUGUGGCUAGACUGCC, the self-cleavage worked out at 0.06.

For the variant GGGAGAGCUCAACGCAGCGUGGCAAAGUGGCUGUGGCUAGACUGCC, the self-cleavage stood at 1.31.

Regarding GGGAGAGCUCAACUCAGCGUGGCAAAGUGGCUGUGGCUAGACUGCC, the self-cleavage worked out at 0.32.

In the case of GGGAGAGCUCAACACAGCGUGGCAGAGUGGCUGUGGCUAGACUGCC, the self-cleavage was 0.14.

Regarding GGGAGAGCUCAACACAGCGUGGCACAGUGGCUGUGGCUAGACUGCC, the self-cleavage amounted to 0.18.

For GGGAGAGCUCAACACAGCGUGGCAUAGUGGCUGUGGCUAGACUGCC, the self-cleavage was determined as 0.47.

Turning to GGGAGAGCUCAACACAGCGUGGCAAAGUGGCUGUGGGUAGACUGCC, the self-cleavage was 0.13.

With GGGAGAGCUCAACACAGCGUGGCAAAGUGGCUGUGGAUAGACUGCC, the self-cleavage turned out to be 0.29.

For the variant GGGAGAGCUCAACACAGCGUGGCAAAGUGGCUGUGGUUAGACUGCC, the self-cleavage is 0.5.

For the variant GGAAGAGCUCAACACAGCGUGGCAAAGUGGCUGGGGCUAGACUGCC, the self-cleavage was 0.12.

GGAAGAGCUCAACACAGCGUGGCAAAGUGGCUGAGGCUAGACUGCC: the self-cleavage is 0.11.

Consider GGAAGAGCUCAACACAGCGUGGCAAAGUGGCUGCGGCUAGACUGCC, for which the self-cleavage is 0.14.

Regarding GGAAGAGCUCAACACAGCGUGGCAAAGUGGCUGUGUCUAGACUGCC, the self-cleavage came to 0.38.

Take GGAAGAGCUCAACACAGCGUGGCAAAGUGGCUGUGACUAGACUGCC: the self-cleavage stood at 1.1.

Take GGAAGAGCUCAACACAGCGUGGCAAAGUGGCUGUGCCUAGACUGCC: the self-cleavage was determined as 1.01.

In the case of GGAAGAGCUCAACACAGCGUGGCAAAGUGGCUGUCGCUAGACUGCC, the self-cleavage amounted to 0.18.

As to GGAAGAGCUCAACACAGCGUGGCAAAGUGGCUGUUGCUAGACUGCC, the self-cleavage was 0.59.

GGAAGAGCUCAACACAGCGUGGCAAAGUGGCUGUAGCUAGACUGCC: the self-cleavage is 0.35.

With GGGAGAGCUCAACACAGCGUGGCAAAGUGGCUGUGGCUAGCCUGCC, the self-cleavage came to 0.1.

As to GGGAGAGCUCAACACAGCGUGGCAAAGUGGCUGUGGCUAGUCUGCC, the self-cleavage was 0.29.

For the variant GGGAGAGCUCAACACAGCGUGGCAAAGUGGCUGUGGCUAGGCUGCC, the self-cleavage was 0.09.

For GGAAGAGCUCAACACAGCGUGGCAAAGUGGCUUUGGCUAGACUGCC, the self-cleavage was 0.15.

Turning to GGAAGAGCUCAACACAGCGUGGCAAAGUGGCUCUGGCUAGACUGCC, the self-cleavage came out at 0.1.

In the case of GGAAGAGCUCAACACAGCGUGGCAAAGUGGCUAUGGCUAGACUGCC, the self-cleavage was 0.37.

In the case of GGGACAGCUCAACACAGCGUGGCAAAGUGGCUGUGGCUAGACUGCC, the self-cleavage was 0.58.

Consider GGGAAAGCUCAACACAGCGUGGCAAAGUGGCUGUGGCUAGACUGCC, for which the self-cleavage was found to be 0.68.

On to GGGAUAGCUCAACACAGCGUGGCAAAGUGGCUGUGGCUAGACUGCC, for which the self-cleavage stood at 0.11.

As for GGGAGAGCUCAACACAGCGUGGCAAAGUGGGUGUGGCUAGACUGCC, the self-cleavage was 0.07.

In the case of GGGAGAGCUCAACACAGCGUGGCAAAGUGGAUGUGGCUAGACUGCC, the self-cleavage was found to be 0.15.

In the case of GGGAGAGCUCAACACAGCGUGGCAAAGUGGUUGUGGCUAGACUGCC, the self-cleavage was found to be 0.07.

Regarding GGGAGAGCUCAACACAGCGUGGCAAGGUGGCUGUGGCUAGACUGCC, the self-cleavage stood at 0.36.

Turning to GGGAGAGCUCAACACAGCGUGGCAAUGUGGCUGUGGCUAGACUGCC, the self-cleavage was 0.56.

For the variant GGGAGAGCUCAACACAGCGUGGCAACGUGGCUGUGGCUAGACUGCC, the self-cleavage was found to be 0.37.

GGGAGAGCUCAACACAGCGUGGCCAAGUGGCUGUGGCUAGACUGCC: the self-cleavage is 0.35.

Take GGGAGAGCUCAACACAGCGUGGCGAAGUGGCUGUGGCUAGACUGCC: the self-cleavage was 0.5.

On to GGGAGAGCUCAACACAGCGUGGCUAAGUGGCUGUGGCUAGACUGCC, for which the self-cleavage was 0.72.

Consider GGGAGAGCUCAACACAGCGUGGCAAAGUGGCUGUGGCUUGACUGCC, for which the self-cleavage was determined as 0.27.

Consider GGGAGAGCUCAACACAGCGUGGCAAAGUGGCUGUGGCUGGACUGCC, for which the self-cleavage came to 0.56.

In the case of GGGAGAGCUCAACACAGCGUGGCAAAGUGGCUGUGGCUCGACUGCC, the self-cleavage came out at 0.14.

Consider GGAAGAGCUCAACACAGCGAGGCAAAGUGGCUGUGGCUAGACUGCC, for which the self-cleavage was found to be 0.38.

Consider GGAAGAGCUCAACACAGCGGGGCAAAGUGGCUGUGGCUAGACUGCC, for which the self-cleavage is 0.31.

With GGAAGAGCUCAACACAGCGCGGCAAAGUGGCUGUGGCUAGACUGCC, the self-cleavage came out at 0.19.

Regarding GGGAGAGCUCAACACGGCGUGGCAAAGUGGCUGUGGCUAGACUGCC, the self-cleavage stood at 0.23.

GGGAGAGCUCAACACUGCGUGGCAAAGUGGCUGUGGCUAGACUGCC: the self-cleavage amounted to 0.18.

In the case of GGGAGAGCUCAACACCGCGUGGCAAAGUGGCUGUGGCUAGACUGCC, the self-cleavage is 0.12.

GGGAGAGCUGAACACAGCGUGGCAAAGUGGCUGUGGCUAGACUGCC: the self-cleavage came out at 0.04.

For GGGAGAGCUAAACACAGCGUGGCAAAGUGGCUGUGGCUAGACUGCC, the self-cleavage stood at 0.05.

GGGAGAGCUUAACACAGCGUGGCAAAGUGGCUGUGGCUAGACUGCC: the self-cleavage stood at 0.19.
